The values below come from PMC8519809 (Cell Reports, 2021).

The target in the test is SARS-CoV-1 S-2P protein (SARS-CoV-1 (human SARS coronavirus); …, stabilised). In words: SPR.

B1: Fab22 (Fab, V domains shown)
VH: EVQLQQPGPVLVKPGASVRMSCKASGYRITDNFMNWVKQSHGKSLEWIGIINPYNGGTKYNQKFKGKATLTVDTSSSTAYMELNSLTSEDSAVYYCTRVRGNDYHGRAMDYWGQGTSVTVSS
VL: DVVLTQTPLSLPVNIGDQASISCKSTKSLLNRDGFTFLDWYLQKPGQSPQLLIYLVSNRFSGVPDRFSGSGSGTDFTLKISRVEAEDLGVYYCFQSNYLFTFGSGTKLEIK
As to B1, the Kd (as a rule, the concentration at which binding is half-saturated) stood at 7.2 nM.
